According to publication PMC9165289, “Theranostic PSMA ligands with optimized backbones for intraoperative multimodal imaging and photodynamic therapy of prostate cancer” (European Journal of Nuclear Medicine and Molecular Imaging, 2022):
Where two headings read alike, the source gives them in different places.

How the values were obtained:
[1] = ex vivo biodistribution of 111In-labeled ligands; parameters: species or system BALB/c nude mice; conditions: male, BALB/c nude, mouse, iv, 0.3 nmol, total radioactivity, 2 h p.i.; for tissue uptake at 2 h: 10 MBq/mouse, i.v.
Protocol: (§1) All animal experiments were approved by the institutional Animal Welfare Committee of the Radboud University Medical Center and were conducted in accordance to the guidelines of the Revised Dutch Act on Animal Experimentation. Animal experiments were performed in 8–10 weeks old male BALB/c nude mice (Janvier). The mice were housed in individually ventilated cages (Blue line IVC, 3–5 mice per cage), under standard non-sterile conditions with cage enrichment present. There was free access to chlorophyll-free animal chow (Sniff Voer) and water. Mice were subcutaneously inoculated with 3.0 × 10^6 LS174T-PSMA cells in the right flank and 1.5 × 10^6 LS174T WT cells in the left flank (diluted in 200-µl RPMI 1640 medium). When xenografts were approximately 0.5 cm^3 (10–14 days after injection), mice were block-randomized into groups based on tumor size. The researchers were not blinded for the experimental groups.
(§2) Mice were intravenously injected with 0.3 nmol PSMA ligand, labeled with 10 MBq ^111In (molar activity 33.3 MBq/nmol) in PBS + 0.5% (w/v) BSA. For the ex vivo biodistribution, five groups (one group for each ligand) of four mice were included. Two hours p.i., all mice were euthanized by CO2/O2-asphyxiation. For two mice of each group (2 mice/ligand), background-subtracted fluorescence images were acquired with the IVIS imaging system (Xenogen VivoVision IVIS Lumina II, PerkinElmer), with a 640-nm excitation filter and a Cy5.5 emission filter and an acquisition time of 10 s. Next, µSPECT/CT imaging was performed in the same two mice per group, with a 1.0-mm diameter pinhole mouse collimator tube (U-SPECT II, MILabs). Mice were scanned for 30 min followed by a CT scan for anatomical reference (spatial resolution 160 μm, 615 μA, 65 kV). MILabs reconstruction software was used to reconstruct the µSPECT/CT scans, via an ordered-subset expectation maximization algorithm, energy windows 154–188 keV and 220–270 keV, 3 iterations, 16 subsets, and voxel size of 0.75 mm. SPECT/CT maximum intensity projections (MIPs) were created using the Inveon Research Workplace software (Siemens Preclinical Solutions, version 4.1). NIR fluorescence images were analyzed using Living Image software (PerkinElmer, version 4.2). After imaging, relevant tissues were dissected, weighed, and measured for radioactivity in a gamma-counter (2480 WIZARD^2 Automatic Gamma Counter, PerkinElmer). In addition, a blocking experiment with PSMA-N064 and PSMA-617 was performed. Full experimental procedures and results can be found in the supplementary data (Page 5, Supplementary Fig. 3).

[2] = system: LS174T-PSMA and LS174T wildtype xenografts; experiment: ex vivo biodistribution of 111In-labeled ligands; parameters: species or system BALB/c nude mice; conditions: 0.3 nmol, 2 h p.i.
Protocol: as §1, §2

C[Si](C)(CCC[N+](CCCS(=O)(=O)[O-])(CCCS(=O)(=O)O)CCCS(=O)(=O)O)O[Si]1(O[Si](C)(C)CCC[N+](CCCS(=O)(=O)[O-])(CCCS(=O)(=O)O)CCCS(=O)(=O)O)n2c3c4ccccc4c2N=C2N=C(N=c4c5c(OCCCOC(=O)NCCCCCC(=O)NCCCC[C@H](NC(=O)CCC(C(=O)O)N6CCN(CC(=O)O)CCN(CC(=O)O)CCN(CC(=O)O)CC6)C(=O)N[C@@H](Cc6ccccc6)C(=O)N[C@@H](CCC(=O)O)C(=O)N[C@@H](CCC(=O)O)C(=O)NCCCCCC(=O)NCCCC[C@H](NC(=O)N[C@@H](CCC(=O)O)C(=O)O)C(=O)O)cccc5c(n41)=NC1=NC(=N3)c3ccccc31)c1ccccc12 (stereo partly drawn) [PSMA-N064]
tissue uptake at 2 h ([1]; LS174T wildtype tumor, n=4, read-out: Biodistribution Tumor- LS174T): 0.7 ± 0.3 %ID/g
tissue uptake at 2 h ([1]; LS174T-PSMA tumor, n=4, read-out: Biodistribution Tumor+ LS174T-PSMA): 14 ± 2 %ID/g
tissue uptake at 2 h ([1]; adrenals, n=4, read-out: Biodistribution Adrenals): 1.6 ± 0.4 %ID/g
tissue uptake at 2 h ([1]; blood, n=4, read-out: Biodistribution Blood): 0.3 ± 0.1 %ID/g
tissue uptake at 2 h ([1]; bone marrow, n=4, read-out: Biodistribution Bone marrow): 0.2 ± 0.1 %ID/g
tissue uptake at 2 h ([1]; bone, n=4, read-out: Biodistribution Bone): 0.7 ± 0.1 %ID/g
tissue uptake at 2 h ([1]; duodenum, n=4, read-out: Biodistribution Duodenum): 0.3 ± 0.1 %ID/g
tissue uptake at 2 h ([1]; heart, n=4, read-out: Biodistribution Heart): 0.4 ± 0.1 %ID/g
tissue uptake at 2 h ([1]; kidney, n=4, read-out: Biodistribution Kidney): 74 ± 17 %ID/g
tissue uptake at 2 h ([1]; liver, n=4, read-out: Biodistribution Liver): 0.9 ± 0.2 %ID/g
tissue uptake at 2 h ([1]; lung, n=4, read-out: Biodistribution Lung): 0.5 ± 0.1 %ID/g
tissue uptake at 2 h ([1]; muscle, n=4, read-out: Biodistribution Muscle): 0.1 ± 0.04 %ID/g
tissue uptake at 2 h ([1]; pancreas, n=4, read-out: Biodistribution Pancreas): 0.3 ± 0.05 %ID/g
tissue uptake at 2 h ([1]; prostate, n=4, read-out: Biodistribution Prostate): 0.6 ± 0.1 %ID/g
tissue uptake at 2 h ([1]; salivary glands, n=4, read-out: Biodistribution Salivary glands): 0.4 ± 0.04 %ID/g
tissue uptake at 2 h ([1]; spleen, n=4, read-out: Biodistribution Spleen): 1.4 ± 0.3 %ID/g
tissue uptake at 2 h ([1]; stomach, n=4, read-out: Biodistribution Stomach): 0.4 ± 0.1 %ID/g
tissue to tissue ratio at 2 h ([1]; tumor (LS174T-PSMA xenograft) / blood, read-out: Tumor/Blood ratio): 54 ± 14.7
tissue to tissue ratio at 2 h ([1]; tumor (LS174T-PSMA xenograft) / kidney, read-out: Tumor/Kidney ratio): 0.2 ± 0.03
tissue to tissue ratio at 2 h ([1]; tumor (LS174T-PSMA xenograft) / liver, read-out: Tumor/Liver ratio): 15.6 ± 3.6
tissue to tissue ratio at 2 h ([1]; tumor (LS174T-PSMA xenograft) / spleen, read-out: Tumor/Spleen ratio): 9.6 ± 0.4
Tumor/Negative tumor ratio [2]: 23.8 ± 9.7
Tumor/Prostate ratio [2]: 21.9 ± 1.7
Tumor/Salivary gland ratio [2]: 33.8 ± 6.6
